According to the Immune Epitope Database (IEDB):

Legend:
[1] = target: HLA-A*03:01; test: IEDB peptide-MHC binding, purified MHC/direct/fluorescence; filed as Kd, often an IC50 or EC50 that approximates it; ≥ and ≤ were set here for values at or beyond the usual limits of such assays
[2] = target: HLA-A*68:02; test: as above
[3] = target: HLA-A*29:02; test: as above
[4] = target: HLA-A*02:01; test: as above
[5] = target: HLA-A*24:03; test: as above
[6] = target: HLA-B*57:01; test: IEDB peptide-MHC binding, purified MHC/competitive/fluorescence; filed as Kd, often an IC50 or EC50 that approximates it; ≥ and ≤ were set here for values at or beyond the usual limits of such assays
[7] = target: HLA-B*18:01; test: as above
[8] = target: HLA-B*15:01; test: as above
[9] = target: HLA-B*39:01; test: as above
[10] = target: HLA-B*46:01; test: as above
[11] = target: HLA-A*26:01; test: as above
[12] = target: HLA-A*69:01; test: as above; settings: source organism: Zaire ebolavirus
[13] = target: HLA-B*51:01; test: as above
[14] = target: HLA-B*27:03; test: as above
[15] = target: HLA-B*15:17; test: as above
[16] = target: HLA-A*03:01; test: as above; settings: source organism: Cryptosporidium parvum Iowa II
[17] = target: HLA-A*68:02; test: as above; settings: source organism: Cryptosporidium parvum Iowa II
[18] = target: HLA-A*02:03; test: as above; settings: source organism: Cryptosporidium parvum Iowa II
[19] = target: HLA-A*01:01; test: IEDB peptide-MHC binding, purified MHC/direct/fluorescence; filed as Kd, often an IC50 or EC50 that approximates it; ≥ and ≤ were set here for values at or beyond the usual limits of such assays
[20] = target: HLA-B*51:01; test: as above
[21] = target: HLA-B*40:01; test: IEDB peptide-MHC binding, purified MHC/competitive/radioactivity; filed as Kd, often an IC50 or EC50 that approximates it; ≥ and ≤ were set here for values at or beyond the usual limits of such assays; settings: source organism: Dengue virus 2 Jamaica/1409/1983
[22] = target: HLA-A*30:01; test: as above; settings: source organism: Dengue virus 2 Jamaica/1409/1983
[23] = target: HLA-B*18:01; test: IEDB peptide-MHC binding, purified MHC/direct/fluorescence; filed as Kd, often an IC50 or EC50 that approximates it; ≥ and ≤ were set here for values at or beyond the usual limits of such assays
[24] = target: HLA-A*02:19; test: as above
[25] = target: HLA-B*39:01; test: as above
[26] = target: HLA-B*46:01; test: as above
[27] = target: HLA-A*26:01; test: as above; settings: source organism: Bacillus anthracis str. A0465
[28] = target: HLA-A*69:01; test: as above
[29] = target: HLA-A*02:03; test: as above
[30] = target: HLA-B*57:01; test: as above
[31] = target: HLA-B*58:01; test: as above
[32] = target: HLA-B*15:01; test: as above
[33] = target: HLA-B*40:01; test: as above
[34] = target: HLA-B*44:02; test: as above
[35] = target: HLA-A*02:12; test: as above
[36] = target: HLA-A*31:01; test: as above
[37] = target: HLA-B*07:02; test: as above
[38] = target: HLA-B*27:05; test: as above
[39] = target: HLA-B*48:01; test: as above
[40] = target: HLA-A*11:01; test: as above; settings: source organism: Yellow fever virus
[41] = target: HLA-A*02:11; test: as above; settings: source organism: Sudan ebolavirus
[42] = source organism: Zaire ebolavirus
[43] = source organism: Cryptosporidium parvum Iowa II
[44] = source organism: Giardia lamblia ATCC 50803
[45] = source organism: Bacillus anthracis str. A0465
[46] = source organism: Reston ebolavirus - Reston
[47] = source organism: Yellow fever virus
[48] = source organism: Sudan virus - Boniface, Sudan,1976
[49] = source organism: Sudan ebolavirus

KLWTSISCA
Kd [1, 42]: ≥ 20 µM
Kd [2, 42]: ≥ 20 µM
Kd [3, 42]: ≥ 20 µM
Kd ([4]; source organism: Sudan ebolavirus - Maleo (1979)): 0.0082 µM
Kd [5, 42]: ≥ 20 µM
Kd [6, 42]: ≥ 20 µM
Kd [7, 42]: ≥ 20 µM
Kd [8, 42]: ≥ 20 µM
Kd [9, 42]: ≥ 20 µM
Kd [10, 42]: ≥ 20 µM
Kd [11, 42]: ≥ 20 µM
Kd [12]: ≥ 20 µM
Kd [13, 42]: ≥ 20 µM
Kd [14, 42]: ≥ 20 µM
Kd [15, 42]: ≥ 20 µM

KSWLVHWSL
Kd [6, 43]: 0.0328 µM
Kd [16]: ≥ 20 µM
Kd [17]: ≥ 20 µM
Kd [7, 43]: ≥ 20 µM
Kd [8, 43]: ≥ 20 µM
Kd [9, 43]: ≥ 20 µM
Kd [10, 43]: ≥ 20 µM
Kd [11, 43]: ≥ 20 µM
Kd [14, 43]: ≥ 20 µM
Kd [18]: ≥ 20 µM

LTAHYCFLY
Kd [3, 44]: ≤ 0.001 µM
Kd [19, 44]: 0.007 µM

RERLSRMAI
Kd ([20]; source organism: dengue virus type 2): ≥ 20 µM
Kd [21]: 0.0296 µM
Kd [22]: 0.828 µM

RLLRFTGLF
Kd [2, 45]: ≥ 20 µM
Kd [23, 45]: ≥ 20 µM
Kd [24, 45]: ≥ 20 µM
Kd [25, 45]: ≥ 20 µM
Kd [26, 45]: ≥ 20 µM
Kd [27]: ≥ 20 µM
Kd [28, 45]: ≥ 20 µM
Kd [20, 45]: ≥ 20 µM
Kd [29, 45]: ≥ 20 µM

RVSSDQSAL
Kd ([20]; source organism: Yellow fever virus 17D): ≥ 20 µM

SKLRALLTL
Kd [30, 46]: ≥ 20 µM
Kd [31, 46]: ≥ 20 µM
Kd [1, 46]: ≥ 20 µM
Kd [2, 42]: ≥ 20 µM
Kd [23, 46]: ≥ 20 µM
Kd [32, 46]: ≥ 20 µM
Kd [33, 46]: ≥ 20 µM
Kd [34, 46]: ≥ 20 µM
Kd [35, 42]: ≥ 20 µM
Kd [25, 46]: 0.618 µM
Kd [26, 46]: ≥ 20 µM
Kd [36, 46]: ≥ 20 µM
Kd [3, 46]: ≥ 20 µM
Kd [28, 46]: ≥ 20 µM
Kd [4, 46]: ≥ 20 µM
Kd [5, 42]: ≥ 20 µM
Kd [37, 46]: ≥ 20 µM
Kd [29, 42]: ≥ 20 µM
Kd [19, 46]: ≥ 20 µM
Kd [11, 42]: ≥ 20 µM
Kd [13, 42]: ≥ 20 µM
Kd [14, 42]: ≥ 20 µM
Kd [15, 42]: ≥ 20 µM

TKDTNDNNL
Kd [38, 47]: ≥ 20 µM
Kd [30, 47]: ≥ 20 µM
Kd [31, 47]: ≥ 20 µM
Kd [1, 47]: ≥ 20 µM
Kd [23, 47]: ≥ 20 µM
Kd [39, 47]: ≥ 20 µM
Kd [32, 47]: ≥ 20 µM
Kd [33, 47]: ≥ 20 µM
Kd [34, 47]: ≥ 20 µM
Kd [40]: ≥ 20 µM
Kd [26, 47]: ≥ 20 µM
Kd [36, 47]: ≥ 20 µM
Kd [3, 47]: ≥ 20 µM
Kd [28, 47]: ≥ 20 µM
Kd [4, 47]: ≥ 20 µM
Kd [37, 47]: ≥ 20 µM
Kd [19, 47]: ≥ 20 µM

TMMRHRREL
Kd [38, 48]: ≥ 20 µM
Kd [30, 48]: ≥ 20 µM
Kd [31, 48]: ≥ 20 µM
Kd [1, 48]: ≥ 20 µM
Kd [2, 49]: ≥ 20 µM
Kd [23, 48]: ≥ 20 µM
Kd [39, 48]: ≥ 20 µM
Kd [32, 48]: ≥ 20 µM
Kd [33, 48]: ≥ 20 µM
Kd [34, 48]: ≥ 20 µM
Kd [24, 49]: ≥ 20 µM
Kd [35, 49]: ≥ 20 µM
Kd [25, 48]: ≥ 20 µM
Kd [26, 48]: ≥ 20 µM
Kd [36, 48]: ≥ 20 µM
Kd [3, 48]: ≥ 20 µM
Kd [28, 48]: ≥ 20 µM
Kd [4, 48]: ≥ 20 µM
Kd [5, 49]: ≥ 20 µM
Kd [29, 49]: ≥ 20 µM
Kd [19, 48]: ≥ 20 µM
Kd [41]: ≥ 20 µM
Kd [11, 49]: ≥ 20 µM
Kd [13, 49]: ≥ 20 µM
Kd [14, 49]: ≥ 20 µM
Kd [15, 49]: ≥ 20 µM
